Data reported in FireProtDB (doi:10.1006/jmbi.1999.2772).

Conditions: Thermotoga maritima (strain ATCC 43589 / DSM 3109 / JCM 10099 / NBRC 100826 / MSB8), Thermal, DSC
[1] = pH 4, Sodium acetate 20 mM, reversible: yes
[2] = pH 4.5, Sodium acetate 20 mM, reversible: yes(94%)
[3] = pH 4.8, Sodium acetate 20 mM, reversible: yes(91%)
[4] = pH 5.7, Sodium cacodylate-HCl 20 mM, reversible: yes(97%)
[5] = pH 6, Sodium cacodylate-HCl 20 mM, reversible: yes(98%)
[6] = pH 6.1, Sodium cacodylate-HCl 20 mM, reversible: yes(97%)
[7] = pH 6.35, Sodium cacodylate-HCl 20 mM, reversible: yes
[8] = pH 6.75, Sodium cacodylate-HCl 20 mM, reversible: yes
[9] = pH 7, Sodium cacodylate-HCl 20 mM, reversible: yes(95%)
[10] = pH 7.2, Sodium phosphate 20 mM, reversible: yes(97%)
[11] = pH 7.25, Sodium cacodylate-HCl 20 mM, reversible: yes(98%)
[12] = pH 7.4, Sodium phosphate 20 mM, reversible: yes(98%)
[13] = pH 7.5, Sodium phosphate 20 mM, reversible: yes(97%)
[14] = pH 8.1, borate-NaOH 20 mM, reversible: yes(99%)
[15] = pH 8.4, borate-NaOH 20 mM, reversible: yes(97%)
[16] = pH 8.5, borate-NaOH 20 mM, reversible: yes(98%)
[17] = pH 8.9, borate-NaOH 20 mM, reversible: yes

Chain of Cold shock-like protein wild type, O54310 (O54310 whole entry): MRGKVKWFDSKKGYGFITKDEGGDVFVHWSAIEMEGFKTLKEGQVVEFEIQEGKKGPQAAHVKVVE

Substance: Cold shock-like protein wild type, O54310
- Tm [1]: 87.9 °C
- heat capacity change of unfolding [1]: 0.36 kcal/mol/K
- unfolding enthalpy (calorimetric) [1]: 50.1 kcal/mol
- Tm [2]: 91.6 °C
- heat capacity change of unfolding [2]: 0.05 kcal/mol/K
- unfolding enthalpy (calorimetric) [2]: 56.2 kcal/mol
- Tm [3]: 94.1 °C
- heat capacity change of unfolding [3]: 0.22 kcal/mol/K
- unfolding enthalpy (calorimetric) [3]: 62 kcal/mol
- unfolding enthalpy (van 't Hoff) [3]: 57 kcal/mol
- Tm [4]: 93.3 °C
- heat capacity change of unfolding [4]: 0.08 kcal/mol/K
- unfolding enthalpy (calorimetric) [4]: 71.9 kcal/mol
- unfolding enthalpy (van 't Hoff) [4]: 68.3 kcal/mol
- Tm [5]: 92.1 °C
- heat capacity change of unfolding [5]: 0.17 kcal/mol/K
- unfolding enthalpy (calorimetric) [5]: 74.6 kcal/mol
- unfolding enthalpy (van 't Hoff) [5]: 71 kcal/mol
- Tm [6]: 91.2 °C
- heat capacity change of unfolding [6]: 0.55 kcal/mol/K
- unfolding enthalpy (calorimetric) [6]: 69.5 kcal/mol
- unfolding enthalpy (van 't Hoff) [6]: 64.5 kcal/mol
- Tm [7]: 89.6 °C
- heat capacity change of unfolding [7]: 0.5 kcal/mol/K
- unfolding enthalpy (calorimetric) [7]: 68 kcal/mol
- unfolding enthalpy (van 't Hoff) [7]: 63 kcal/mol
- Tm [8]: 85.8 °C
- heat capacity change of unfolding [8]: 0.18 kcal/mol/K
- unfolding enthalpy (calorimetric) [8]: 65 kcal/mol
- unfolding enthalpy (van 't Hoff) [8]: 58.3 kcal/mol
- Tm [9]: 82 °C
- heat capacity change of unfolding [9]: 0.36 kcal/mol/K
- unfolding enthalpy (calorimetric) [9]: 62.6 kcal/mol
- unfolding enthalpy (van 't Hoff) [9]: 60.8 kcal/mol
- Tm [10]: 83.1 °C
- heat capacity change of unfolding [10]: 0.22 kcal/mol/K
- unfolding enthalpy (calorimetric) [10]: 65.3 kcal/mol
- unfolding enthalpy (van 't Hoff) [10]: 61 kcal/mol
- Tm [11]: 82.8 °C
- heat capacity change of unfolding [11]: 0.4 kcal/mol/K
- unfolding enthalpy (calorimetric) [11]: 61.3 kcal/mol
- unfolding enthalpy (van 't Hoff) [11]: 57.5 kcal/mol
- Tm [12]: 80.8 °C
- heat capacity change of unfolding [12]: 0.38 kcal/mol/K
- unfolding enthalpy (calorimetric) [12]: 60.8 kcal/mol
- unfolding enthalpy (van 't Hoff) [12]: 55.7 kcal/mol
- Tm [13]: 81.1 °C
- heat capacity change of unfolding [13]: 0.11 kcal/mol/K
- unfolding enthalpy (calorimetric) [13]: 54.4 kcal/mol
- unfolding enthalpy (van 't Hoff) [13]: 50.4 kcal/mol
- Tm [14]: 81 °C
- heat capacity change of unfolding [14]: 0.01 kcal/mol/K
- unfolding enthalpy (calorimetric) [14]: 54.7 kcal/mol
- unfolding enthalpy (van 't Hoff) [14]: 51 kcal/mol
- Tm [15]: 77.5 °C
- heat capacity change of unfolding [15]: 0.5 kcal/mol/K
- unfolding enthalpy (calorimetric) [15]: 56.1 kcal/mol
- Tm [16]: 77.6 °C
- heat capacity change of unfolding [16]: 0.06 kcal/mol/K
- unfolding enthalpy (calorimetric) [16]: 53.9 kcal/mol
- unfolding enthalpy (van 't Hoff) [16]: 51.7 kcal/mol
- Tm [17]: 75.5 °C
- heat capacity change of unfolding [17]: 0.5 kcal/mol/K
- unfolding enthalpy (calorimetric) [17]: 56.1 kcal/mol
